Experimental data taken from patent US20220177587A1, “METHODS AND USES OF VARIANT CD80 FUSION PROTEINS AND RELATED CONSTRUCTS” (Alpine Immune Sciences, Inc., priority 2018, published 2022).

Assay: Mouse PK model
Assay type: in vivo
Conditions: mouse PK model estimate
Description: A PK model was designed as a two compartment model with intercompartmental distribution (Q) between the first compartment (Central Compartment, V1) and the second compartment (Peripheral Compartment, V2). To capture intraperitoneal (IP) or subcutaneous (SC) injection routes, a third compartment (Depot Compartment) was included with a first-order rate constant (Ka) linking the third compartment uni-directionally to the first compartment. The model also included a constant F to account for loss in the amount of drug available to diffuse from the third compartment (Depot Compartment) to the first compartment (Central Compartment, V1) due to IP or SC injection. The total amount of available drug in the third compartment (Depot Compartment) is described as F×Dose. For intravenous injections (IV), the third compartment (Depot Compartment) was omitted.
Drug clearance (CL) from the first compartment (Central Compartment, V1) was modeled differently for each species. In the mouse model, a time-dependent increase in clearance due to the formation of anti-drug antibodies was accounted for as follows:
For monkeys, linear clearance from the first compartment (Central Compartment, V1) was assumed.
PK was also compared in tumor-bearing versus non-tumor-bearing mice. […] All treatments were administered IP. PK was determined in tumor-bearing mice in all groups and compared to the predicted PK in non-tumor bearing mice.

H18Y/A26E/E35D/M47L/V68M/A71G/D90G: variant CD80 IgV-Fc (inert), IgV SEQ ID NO:491
CL: 1.34 mL/day
F: 99%
Ka: 4.53 day⁻¹
Q: 26.5 mL/day
V1: 1.94 mL
V2: 8.88 mL
β (time-dependent clearance constant): 0.0685 day⁻¹
